Measured values: US20110143953A1 (ARIZONA BOARD OF REGENTS A BODY CORPORATE OF THE STATE OF …, published 2011)

T1: Gal80 (UniProt P04387 1-435, limits assumed, labelled with Cy3 or Cy5 in the peptide array screen)
T1 sequence (looked up): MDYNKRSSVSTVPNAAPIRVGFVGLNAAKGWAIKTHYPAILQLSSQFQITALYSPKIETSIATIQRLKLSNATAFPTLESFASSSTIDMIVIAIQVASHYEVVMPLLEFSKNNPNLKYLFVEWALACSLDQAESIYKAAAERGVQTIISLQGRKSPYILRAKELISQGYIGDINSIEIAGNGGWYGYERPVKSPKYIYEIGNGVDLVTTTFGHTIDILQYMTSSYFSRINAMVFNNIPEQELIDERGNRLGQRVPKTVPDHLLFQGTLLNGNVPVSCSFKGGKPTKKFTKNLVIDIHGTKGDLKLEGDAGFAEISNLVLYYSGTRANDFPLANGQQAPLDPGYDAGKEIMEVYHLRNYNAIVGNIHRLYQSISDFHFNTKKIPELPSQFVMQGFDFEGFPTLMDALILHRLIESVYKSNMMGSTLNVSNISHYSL


Experiments:
transferrin = molecular target: T2, transferrin (UniProt P02787 20-698, randomly labelled at free amines with Alexa 555 in the peptide array screen; amine-coupled to the chip in SPR); test: SPR (Biacore T100), transferrin immobilized, steady-state response
T2 construct: also called TRF
Excerpt: Flow rates and contact times are adjusted as necessary to provide the surface concentration of target desired for the intended application, and may vary by target. In general, for evaluating whether binding occurs, it is preferable to immobilize a relatively large quantity of target, and higher flow rates and/or longer contact times may be used. For determining kinetics, it is preferable to limit the amount of target immobilized so as to minimize rebinding and avidity effects, and lower flow rates and/or contact times may be used.
Candidate affinity elements for the transferrin synbody TRF19, TRF21, TRF23, TRF24, TRF25, and TRF26 were individually evaluated for solution phase KD with respect to transferrin by SPR analysis. […] For each experiment, response data were processed using a reference surface to correct for bulk refractive index changes and any non-specific binding. Data were also double referenced using responses from blank running buffer injections.

Gal80 [1] = molecular target: T1, Gal80; test: SPR, synbody in solution (1 µM to 7.81 nM) on surface-bound Gal80; SPR, synbody in solution, surface-bound Gal80
Gal80 [2] = molecular target: T1, Gal80; test: gel shift assay; gel shift assay
Gal80 [3] = molecular target: T1, Gal80; test: SPR, gal80 immobilised on the chip, Kd from on and off rates

T2 sequence (P02787 20-698 limits assumed): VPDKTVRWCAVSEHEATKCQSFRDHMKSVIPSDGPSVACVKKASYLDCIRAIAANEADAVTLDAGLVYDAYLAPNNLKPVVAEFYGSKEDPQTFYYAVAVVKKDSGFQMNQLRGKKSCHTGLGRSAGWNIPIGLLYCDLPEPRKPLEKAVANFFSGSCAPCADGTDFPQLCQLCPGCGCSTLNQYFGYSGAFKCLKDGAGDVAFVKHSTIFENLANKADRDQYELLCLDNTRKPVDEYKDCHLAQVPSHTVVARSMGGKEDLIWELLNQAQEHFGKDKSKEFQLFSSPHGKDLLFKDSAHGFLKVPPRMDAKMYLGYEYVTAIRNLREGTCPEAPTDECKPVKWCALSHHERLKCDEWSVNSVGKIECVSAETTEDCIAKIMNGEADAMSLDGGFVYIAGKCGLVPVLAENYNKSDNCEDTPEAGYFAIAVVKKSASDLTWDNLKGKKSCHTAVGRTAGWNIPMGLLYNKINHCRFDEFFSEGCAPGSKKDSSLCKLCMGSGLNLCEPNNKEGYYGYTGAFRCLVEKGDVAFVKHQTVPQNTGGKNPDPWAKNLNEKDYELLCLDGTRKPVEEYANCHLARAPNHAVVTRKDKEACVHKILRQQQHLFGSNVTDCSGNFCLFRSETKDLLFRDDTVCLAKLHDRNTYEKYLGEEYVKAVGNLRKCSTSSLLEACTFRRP

| Binder | Kd (transferrin) | further results |
| --- | --- | --- |
| FRGWAHIFFGPHVIYRGGSC (20-mer random peptide) [TRF23] | ~50 µM | – |
| QYHHFMNLKRQGRAQAYGSC (20-mer random peptide) [TRF21] | ~60 µM | – |
| linker-optimized BP1/BP2 DNA-linked synbody (BP1 on the template strand, BP2 at position 13 from the 3' end of the variable strand) (designed binder, not fully specified; C-terminal cysteine conjugated through SMCC to the amine-modified cytosine at position 13 from the 3' end of the DNA variable strand (SEQ ID NO: 15); C-terminal cysteine conjugated through SMCC to the amine-modified 5' terminal cytosine of the DNA template strand (SEQ ID NO: 14), The two peptides are held about 5 nm apart by a double-stranded DNA linker; also called Gal80 synbody; gal80 synbody) peptide 1: GTEKGTSGWLKTGSC peptide 2: EGEWTEGKLSLRGSC | – | Kd (Gal80 [1]): 0.091 µM; Kd (Gal80 [2]): ~0.1 µM |
| KEDNPGYSSEQDYNKLDGSC (20-mer random peptide; on the array it is attached by its C-terminal cysteine to the surface) [TRF19] | ~150 µM | – |
| EGEWTEGKLSLRGSC (chain 1 pos 15: Cys thiol joined via SMCC maleimide to an amine-modified cytosine of the double-stranded DNA linker. The DNA cannot be carried by the letters., also called BP2 complexed by itself to the double-stranded DNA linker) [BP2 on dsDNA] | – | Kd (Gal80 [3]): 0.982 µM |
| GTEKGTSGWLKTGSC (chain 1 pos 15: Cys thiol joined via SMCC maleimide to an amine-modified cytosine of the double-stranded DNA linker. The DNA cannot be carried by the letters., also called BP1 complexed by itself to the double-stranded DNA linker) [BP1 on dsDNA] | – | Kd (Gal80 [3]): 0.482 µM |
| SVKPWRPLLTGNRWLNSGSC [TRF24] | ~50 µM | – |

The next lines start with results.

| Kd (transferrin) | Binder | further results |
| --- | --- | --- |
| ~100 µM | AHKVVPQRQIRHAYNRYGSC (20-mer random peptide) [TRF26] | – |
| ~60 µM | APYAPQQIHYWSTLGFKGSC (20-mer random peptide) [TRF25] | – |
